Laboratory results as given in US20150111836A1, “CELLULAR APOBEC3 PROTEINS AND MODULATORS THEREOF FOR REGULATING DNA REPAIR PROCESSES AND TREATING PROLIFERATIVE DISEASES” (priority 2012, published 2015).
Where a SMILES comes first, the peptide text is derived from it. The star is where a group is joined. Cbz = O=C(OCc1ccccc1)*; CH2F = FC*

How the values were obtained:
A3G [1] = experiment: shRNA-mediated knockdown of A3G expression in H9 cells; format: cell-based, human; conditions: Western blot, FIG. 8F
Experimental: (§1) For short hairpin (sh) RNA expression, the following puromycin resistance-encoding vectors were used: A3G-specific pLKO.1.shA3G (TRCN0000052188, clone NM_021822.1-398s1 c1; Sigma-Aldrich), having the nucleic acid sequence 5′-CCGG-[…]-CTCGAG-[…]-TTTTTG-3′, as denoted by SEQ ID NO. 92, and the unrelated control cyprinid herpes virus 3 (CyHV3)-specific pLKO.1.shCtr1. […]. Culture supernatants were collected 48 h post transfection, centrifuged for 10 min at 4,000 rpm to remove cell debris and then for 1 h at 35,000 rpm using a swing SW-41 rotor (Beckman). H9 cells were transduced with the concentrated vectors by spinoculation for 1 h at 1,000 rpm and selected with puromycin (1 μg ml^−1) for 3-10 days post transduction.
Transfected or infected cells were harvested, washed once in PBS, re-suspended in SDS-gel loading buffer and boiled for 10 min. Samples of 5×10^4 cells were analyzed by SDS-12% polyacrylamide gel electrophoresis (SDS-PAGE), followed by transfer of the proteins to polyvinylidene fluoride (PVDF) membrane. HIV-1 proteins were detected by using rabbit anti-Vif and monoclonal anti-Ca-p24 antibodies. A3G protein was identified by rabbit polyclonal anti-A3G.

H9 cells [2] = experiment: γ-H2AX / RPA foci after IR in A3G knockdown H9 cells; format: cell-based, human
Experimental: as §1
(§2) Cells were irradiated by exposure to a ^60Co source producing 1 Gy sec^−1 γ-radiation, or mock-irradiated. Following incubation at 37° C., cells were fixed, attached to glass slides by cytospin, permeabilized with detergent and blocked with 10% normal goat serum. Cells were then incubated with A3G-specific rabbit polyclonal antibody, γ-H2AX-specific monoclonal antibody, or RPA32-specific monoclonal antibody, followed by incubation with goat anti-rabbit Cy-5-conjugated antibody, goat anti-mouse Cy-2-conjugated antibody and DAPI. Slides were mounted and examined by Zeiss LSM 710 confocal microscope. Data were collected sequentially using a ×63 objective with 7-fold averaging at a resolution of […], Z-sections were obtained using an optical slice of less than 1 μm. Data were analyzed with the Zen 2009.

H9 cells [3] = experiment: Cell cycle analysis following IR; format: cell-based, human; conditions: H9-shA3G cells, 4 Gy, 20 hours, FIG. 8J
Experimental: PBMC, H9 or puromycin-resistant H9-shRNA cells were irradiated (4 Gy) or mock-irradiated. Following 20 h incubation at 37° C., cells were fixed with methanol for 1 h at −20° C., washed with phosphate buffered saline (PBS), treated with RNase A (50 μg ml ^−1) and stained with PI (5 μg ml^−1). The total cellular DNA content was determined by flow cytometry using FACScan. Cell cycle data were analyzed by the CellQuest Pro software and include 10,000 events gated on singlet cells.

A3G [4] = molecular target: T1, A3G (Homo sapiens, UniProt Q9HC16); format: biochemical; conditions: for inhibition of A3G deaminase activity: peptide at 1 μM, FIG. 15B; for inhibition of A3G mediated deamination by A3G-derived peptides: 1-100 μM, FIG. 19B
T1 construct: Myc (C); His6 (C); made in house; host or cells: 293T cells (human embryonic kidney), transfected with pcDNA3.1-A3GMyc-His6, Ni-NTA purified
Experimental: Deaminase activity of purified enzyme and virion-associated A3G protein was examined as previously described. Briefly, A3G deamination reactions were performed in a total volume of 10 μl in 25 mM Tris, pH 7.0, and 0.01-1 fmol single-stranded (ss) deoxyoligonucleotide substrate at 37° C. The reaction was terminated by heating to 95° C. for 5 min. One μl of the reaction mixture was used for PCR amplification performed in 20 μl buffer S, using the following program: 1 cycle at 95° C. for 3 min, followed by 30 cycles of annealing at 61° C. for 30 s and denaturing at 94° C. for 30 s. Aliquots of the PCR products (10 μl) were incubated with Eco147I restriction enzyme for 1 h at 37° C. Completion of the restriction reaction was verified by using positive-control substrate containing CCU instead of CCC. Restriction-reaction products were loaded onto 14% gels and separated by PAGE. Gels were stained with SYBR gold nucleic acid stain diluted 1:10,000 in 0.5× Tris-Borate-EDTA buffer (TBE, pH 7.8), visualized by UV light (312 nm), captured by an Olympus C-5050 charge-coupled device (CCD) camera and analyzed by optical density (OD) scan using the TINA2.0 densitometry software. Assessment of A3G entrapped in virions was carried out with concentrated viruses stocks of 3-5 μg of p24/μl) suspended in PBS containing Triton X-100 at final concentration of 0.1% (vv) and 50 μg/ml RNase A (Sigma-Aldrich). Deamination reactions were incubated for 1 h at 37° C.
A panel of 46 HIV-1 Vif-derived 15-mer peptides (obtained through the NIH AIDS Research and Reference Reagent Program) were screened for inhibition of purified A3G-His6 catalytic activity in a standard cytidine deamination assay. […] A fluorescein-conjugated peptide (kindly provided by Dr. Assaf Friedler) was used to assess the peptide uptake by H9 cells.

H9 cells [5] = experiment: DSB repair (γ-H2AX staining) in irradiated H9 cells pre-incubated with Vif peptides; format: cell-based, human; conditions: 2 h pre-incubation with 100 μM peptide, 4 Gy IR, stained after 8 h
Experimental: as §2
A panel of 46 HIV-1 Vif-derived 15-mer peptides (obtained through the NIH AIDS Research and Reference Reagent Program) were screened for inhibition of purified A3G-His6 catalytic activity in a standard cytidine deamination assay. The inhibitory peptide Vif25-39 corresponds to amino acids 25-39 in HIV-1 HXBII Vif. A fluorescein-conjugated peptide (kindly provided by Dr. Assaf Friedler) was used to assess the peptide uptake by H9 cells. […]

T1 sequence (Q9HC16 whole entry): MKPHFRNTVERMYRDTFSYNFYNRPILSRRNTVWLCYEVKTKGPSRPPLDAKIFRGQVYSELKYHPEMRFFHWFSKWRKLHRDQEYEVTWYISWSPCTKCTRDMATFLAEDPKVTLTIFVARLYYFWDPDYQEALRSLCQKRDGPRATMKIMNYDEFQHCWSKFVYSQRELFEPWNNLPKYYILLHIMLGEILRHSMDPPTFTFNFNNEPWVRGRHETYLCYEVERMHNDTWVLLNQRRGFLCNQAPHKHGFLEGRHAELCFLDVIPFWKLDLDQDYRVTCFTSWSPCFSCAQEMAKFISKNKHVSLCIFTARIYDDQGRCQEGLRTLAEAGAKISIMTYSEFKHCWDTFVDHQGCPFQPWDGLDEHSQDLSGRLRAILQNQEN

“5′-CCGG-GCCAGGTGTATTCCGAACTTA-CTCGAG-TAAGTTCGGAATACACCTGGC-TTTTTG-3′ (DNA CCGGGCCAGGTGTATTCCGAACTTACTCGAGTAAGTTCGGAATACACCTGGCTTTTTG; expressed or natural sequence) [shA3G, A3G-specific shRNA vector TRCN0000052188]” was tested, and the “reduction of A3G expression compared to H9-shCtr1 cells” value (A3G [1]) was 70-80%, the “RPA recruitment to damage-induced foci following IR” value (H9 cells [2]; H9-shA3G cells, 4 Gy, 2 h, FIG. 10A) was “did not form such foci” and the “γ-H2AX foci in the hours following IR” value (H9 cells [2]; H9-shA3G cells, 4 Gy, up to 8 hours, FIG. 8G) was “did not decrease”. For the same molecule, the “G2M arrest following IR” value (H9 cells [3]) was “did not undergo G2M arrest”.

For `COC(=O)C[C@H](NC(=O)[C@H](C)NC(=O)[C@@H](NC(=O)OCc1ccccc1)C(C)C)C(=O)CF` [z-VAD-fmk, reference compound] (Cbz-Val-Ala-Asp(OMe)-CH2F), the “DSB incidence in the presence of caspase inhibitor” value (H9 cells [2]; 20 μM, 1 hour pre-incubation, γ-H2AX 6 hours after IR, FIG. 8H) was “comparable with cells treated with mock”.

In the case of “DCFSESAIRNAILGH (Viral - Vif peptide) [Vif113-127]”, the “inhibition of A3G deaminase activity” value (A3G [4]) is reported as “inhibited”.

With “DLADQLIHLYYFDCF (Viral - Vif peptide) [Vif101-115]” the “inhibition of A3G deaminase activity” value (A3G [4]) was “inhibited”.

“GWFYRHHYESTHPRI (Viral - Vif peptide) [Vif37-51]” was tested, and the “inhibition of A3G deaminase activity” value (A3G [4]) was “inhibited”.

For “IHLYYFDCF (Viral - Vif peptide) [SEQ ID NO. 71]”, the “inhibition of A3G mediated deamination by short Vif- and A3F-derived peptides” value (A3G [4]; 0.001 to 10 μM, FIG. 19A) was “distinct inhibitory pattern”.

With IVWQVDRMRIRTWKS [Vif9-23] the “inhibition of A3G deaminase activity” value (A3G [4]) was “inhibited”.

With “RMHNDTWVLLNQRRG (listed as Homo sapiens) [SEQ ID NO. 84]” the “inhibition of A3G mediated deamination by A3G-derived peptides” value (A3G [4]) was “marked inhibitory effect”.

In the case of “WRKKRYSTQVDPDLA (Viral - Vif peptide) [Vif89-103, control peptide]”, the “inhibition of A3G-mediated deamination” value (A3G [4]; peptide at 100 μM) is reported as “did not inhibit” and the “cells containing DSBs” value (H9 cells [5]) is reported as less than 8%.

In the case of “WVRGRHETYLCYEVE (listed as Homo sapiens) [SEQ ID NO. 83]”, the “inhibition of A3G mediated deamination by A3G-derived peptides” value (A3G [4]) is reported as “marked inhibitory effect”.
